First the molecules themselves.
B1: Protein S100-G, residues 1 to 79; numbered along this chain, P02633 (parent)
chain: MSAKKSPEELKGIFEKYAAKEGDPNQLSKEELKLLLQTEFPSLLKGPSTLDELFEELDKNGDGEVSFEEFQVLVKKISQ

± gives the uncertainty stated by the source.

This data set covers variants of B1. Nature of the data set: abundance fitness (aPCA) (normalised: wild type 0, dead -1); higher = more abundant; growth selection in yeast, the domain comes from the species named. As to conditions: Bos taurus.
Consider MSAKKSPEELKGIFEKYAAKEGDPNQLSKEELKLLLQTEFPSLLKIPSTLDELFEELDKNGDGEVSFEEFQVLVKKISQ [G46I], for which the abundance fitness is 0 ± 0.072.
With MSAKKSPEELKGIFEKYAAKEGDPNQLSKEELKLLLQTEFPSLLKMPSTLDELFEELDKNGDGEVSFEEFQVLVKKISQ [G46M] the figure was 0.053 ± 0.07; with MSAKKSPEELKGIFEKYAAKEGDPNQLSKEELKLLLQTEFPSLLKQPSTLDELFEELDKNGDGEVSFEEFQVLVKKISQ [G46Q], -0.008 ± 0.072; with MSAKKSPEELKGIFEKYAAKEGDPNQLSKEELKLLLQTEFPSLLKHPSTLDELFEELDKNGDGEVSFEEFQVLVKKISQ [G46H], 0.039 ± 0.07.
With MSAKKSPEELKGIFEKYAAKEGDPNQLSKEELKLLLQTEFPSLLKKPSTLDELFEELDKNGDGEVSFEEFQVLVKKISQ [G46K] the figure was -0.001 ± 0.071; with MSAKKSPEELKGIFEKYAAKEGDPNQLSKEELKLLLQTEFPSLLKTPSTLDELFEELDKNGDGEVSFEEFQVLVKKISQ [G46T], 0.007 ± 0.061; with MSAKKSPEELKGIFEKYAAKEGDPNQLSKEELKLLLQTEFPSLLKYPSTLDELFEELDKNGDGEVSFEEFQVLVKKISQ [G46Y], 0.011 ± 0.067.
Take MSAKKSPEELKGIFEKYAAKEGDPNQLSKEELKLLLQTEFPSLLKLPSTLDELFEELDKNGDGEVSFEEFQVLVKKISQ [G46L]: the abundance fitness was found to be 0.02 ± 0.054.
With MSAKKSPEELKGIFEKYAAKEGDPNQLSKEELKLLLQTEFPSLLKFPSTLDELFEELDKNGDGEVSFEEFQVLVKKISQ [G46F] the figure was -0.005 ± 0.068; with MSAKKSPEELKGIFEKYAAKEGDPNQLSKEELKLLLQTEFPSLLKWPSTLDELFEELDKNGDGEVSFEEFQVLVKKISQ [G46W], -0.087 ± 0.077; with MSAKKSPEELKGIFEKYAAKEGDPNQLSKEELKLLLQTEFPSLLKRPSTLDELFEELDKNGDGEVSFEEFQVLVKKISQ [G46R], -0.008 ± 0.064.
With MSAKKSPEELKGIFEKYAAKEGDPNQLSKEELKLLLQTEFPSLLKSPSTLDELFEELDKNGDGEVSFEEFQVLVKKISQ [G46S] the figure was -0.017 ± 0.057.
With MSAKKSPEELKGIFEKYAAKEGDPNQLSKEELKLLLQTEFPSLLKPPSTLDELFEELDKNGDGEVSFEEFQVLVKKISQ [G46P] the figure was -0.041 ± 0.065; with MSAKKSPEELKGIFEKYAAKEGDPNQLSKEELKLLLQTEFPSLLKAPSTLDELFEELDKNGDGEVSFEEFQVLVKKISQ [G46A], 0.042 ± 0.068; with MSAKKSPEELKGIFEKYAAKEGDPNQLSKEELKLLLQTEFPSLLKCPSTLDELFEELDKNGDGEVSFEEFQVLVKKISQ [G46C], -0.023 ± 0.078.
As for MSAKKSPEELKGIFEKYAAKEGDPNQLSKEELKLLLQTEFPSLLKDPSTLDELFEELDKNGDGEVSFEEFQVLVKKISQ [G46D], the abundance fitness came to 0.028 ± 0.076.
With MSAKKSPEELKGIFEKYAAKEGDPNQLSKEELKLLLQTEFPSLLKNPSTLDELFEELDKNGDGEVSFEEFQVLVKKISQ [G46N] the figure was 0.037 ± 0.07; with MSAKKSPEELKGIFEKYAAKEGDPNQLSKEELKLLLQTEFPSLLKEPSTLDELFEELDKNGDGEVSFEEFQVLVKKISQ [G46E], -0.025 ± 0.085.
In the case of MSAKKSPEELKGIFEKYAAKEGDPNQLSKEELKLLLQTEFPSLLEGPSTLDELFEELDKNGDGEVSFEEFQVLVKKISQ [K45E], the abundance fitness was 0.005 ± 0.1.
With MSAKKSPEELKGIFEKYAAKEGDPNQLSKEELKLLLQTEFPSLLYGPSTLDELFEELDKNGDGEVSFEEFQVLVKKISQ [K45Y] the figure was -0.062 ± 0.074; with MSAKKSPEELKGIFEKYAAKEGDPNQLSKEELKLLLQTEFPSLLCGPSTLDELFEELDKNGDGEVSFEEFQVLVKKISQ [K45C], -0.066 ± 0.091; with MSAKKSPEELKGIFEKYAAKEGDPNQLSKEELKLLLQTEFPSLLRGPSTLDELFEELDKNGDGEVSFEEFQVLVKKISQ [K45R], 0.002 ± 0.069.
With MSAKKSPEELKGIFEKYAAKEGDPNQLSKEELKLLLQTEFPSLLVGPSTLDELFEELDKNGDGEVSFEEFQVLVKKISQ [K45V] the figure was -0.029 ± 0.076; with MSAKKSPEELKGIFEKYAAKEGDPNQLSKEELKLLLQTEFPSLLTGPSTLDELFEELDKNGDGEVSFEEFQVLVKKISQ [K45T], -0.005 ± 0.065.
With MSAKKSPEELKGIFEKYAAKEGDPNQLSKEELKLLLQTEFPSLLAGPSTLDELFEELDKNGDGEVSFEEFQVLVKKISQ [K45A] the figure was -0.442 ± 0.082.
Regarding MSAKKSPEELKGIFEKYAAKEGDPNQLSKEELKLLLQTEFPSLLDGPSTLDELFEELDKNGDGEVSFEEFQVLVKKISQ [K45D], the abundance fitness is 0.07 ± 0.09.
Consider MSAKKSPEELKGIFEKYAAKEGDPNQLSKEELKLLLQTEFPSLLMGPSTLDELFEELDKNGDGEVSFEEFQVLVKKISQ [K45M], for which the abundance fitness is 0.002 ± 0.082.
With MSAKKSPEELKGIFEKYAAKEGDPNQLSKEELKLLLQTEFPSLLQGPSTLDELFEELDKNGDGEVSFEEFQVLVKKISQ [K45Q] the figure was 0.042 ± 0.084; with MSAKKSPEELKGIFEKYAAKEGDPNQLSKEELKLLLQTEFPSLLPGPSTLDELFEELDKNGDGEVSFEEFQVLVKKISQ [K45P], 0.003 ± 0.068; with MSAKKSPEELKGIFEKYAAKEGDPNQLSKEELKLLLQTEFPSLLWGPSTLDELFEELDKNGDGEVSFEEFQVLVKKISQ [K45W], -0.012 ± 0.1.
With MSAKKSPEELKGIFEKYAAKEGDPNQLSKEELKLLLQTEFPSLLLGPSTLDELFEELDKNGDGEVSFEEFQVLVKKISQ [K45L] the figure was -0.018 ± 0.062; with MSAKKSPEELKGIFEKYAAKEGDPNQLSKEELKLLLQTEFPSLLHGPSTLDELFEELDKNGDGEVSFEEFQVLVKKISQ [K45H], 0.003 ± 0.075; with MSAKKSPEELKGIFEKYAAKEGDPNQLSKEELKLLLQTEFPSLLNGPSTLDELFEELDKNGDGEVSFEEFQVLVKKISQ [K45N], -0.022 ± 0.07.
With MSAKKSPEELKGIFEKYAAKEGDPNQLSKEELKLLLQTEFPSLGKGPSTLDELFEELDKNGDGEVSFEEFQVLVKKISQ [L44G] the figure was -0.047 ± 0.076.

Source of the values: the Human Domainome abundance scans (Beltran et al. 2025).
